This note sets out measurements from patent US20080220446A1 (published 2008).

In assay [1] the target is T1, tissue-type plasminogen activator (tPA) (human, UniProt P00750 36-562).
T1 construct: Full-length commercial tPA; also called Actilyse; Alteplase
The assay can be described thus: ELISA, therapeutic coated on Nunc Immobilizer plate, concentration series of tPA, one-site binding fit. The protocol:
Plates were washed twice with Tris buffered saline pH 7.2 containing 0.1% Tween20 (TBST) and blocked with PBS containing 1% Tween20 for 1 hour at room temperature. […] Plates were washed five times with TBST and incubated with peroxidase labeled anti-mouse immunoglobulins (RAMPO; DAKOCytomation, Glostrup, Denmark) diluted 1:3000 in PBST for 30 minutes at room temperature. Plates were washed five times with PBS 0.1% Tween20, and stained with 100 μL/well of tetramethyl-benzidine (TMB) substrate (Biosource Europe, Nivelles, Belgium). The reaction was terminated with 50 μL/well of 2 M H₂SO₄ and substrate conversion was read at 450 nm on a Spectramax340 microplate reader. Curves were fitted with a one-site binding model (GraphPad Prism version 4.02 for Windows, Graphpad Software, Calif., USA) from which Kd and Bmax were determined.
In general terms: ELISA stands for enzyme-linked immunosorbent assay.

The target in assay [2] is T1, tissue-type plasminogen activator (tPA). Put plainly: ELISA, tPA immobilized, concentration series of recombinant β2GPI. As for the experimental part: (§1) Binding of β₂GPI was assessed with monoclonal antibody 2B2²².
(§2) The positive control was amyloid fibrin peptide FP13. […] C. […] Eluted fractions are analyzed on Western blot after SDS-PA electrophoresis. […] Signals are corrected for background fluorescence of CL, DXS, ThT and buffer.

The target in assay [3] is T2, factor XII (purified human factor XII from plasma) (human, UniProt P00748 20-615).
T2 construct: also called FXII
T2 sequence (looked up): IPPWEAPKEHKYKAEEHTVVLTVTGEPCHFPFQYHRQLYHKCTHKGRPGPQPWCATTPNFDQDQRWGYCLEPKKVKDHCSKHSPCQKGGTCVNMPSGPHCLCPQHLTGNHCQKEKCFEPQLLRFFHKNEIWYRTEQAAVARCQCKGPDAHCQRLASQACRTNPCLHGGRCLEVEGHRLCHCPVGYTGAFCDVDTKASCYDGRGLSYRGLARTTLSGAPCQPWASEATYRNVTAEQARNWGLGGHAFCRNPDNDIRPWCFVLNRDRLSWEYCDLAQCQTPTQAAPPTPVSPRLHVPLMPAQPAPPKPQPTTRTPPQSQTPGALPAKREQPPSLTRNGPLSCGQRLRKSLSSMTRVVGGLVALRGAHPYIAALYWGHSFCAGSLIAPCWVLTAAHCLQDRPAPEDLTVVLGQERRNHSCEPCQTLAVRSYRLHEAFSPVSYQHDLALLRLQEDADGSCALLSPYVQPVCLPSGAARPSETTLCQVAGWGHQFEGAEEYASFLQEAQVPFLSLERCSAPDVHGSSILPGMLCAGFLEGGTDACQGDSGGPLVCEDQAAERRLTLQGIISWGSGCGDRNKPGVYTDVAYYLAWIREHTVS
The assay can be described thus: ELISA, factor XII coated, concentration series of recombinant β2GPI.

Assay [4] has as its target T2, factor XII (purified human factor XII …). Put plainly: ELISA, factor XII immobilized, concentration series of recombinant β2GPI. As for the experimental part:
as §1, §2

Assay [5] has as its target T1, tissue-type plasminogen activator (tPA). The assay can be described thus: ELISA, tPA coated, concentration series of recombinant β2GPI. As for the experimental part:
as §1, §2

T1 sequence (P00750 36-562 limits assumed): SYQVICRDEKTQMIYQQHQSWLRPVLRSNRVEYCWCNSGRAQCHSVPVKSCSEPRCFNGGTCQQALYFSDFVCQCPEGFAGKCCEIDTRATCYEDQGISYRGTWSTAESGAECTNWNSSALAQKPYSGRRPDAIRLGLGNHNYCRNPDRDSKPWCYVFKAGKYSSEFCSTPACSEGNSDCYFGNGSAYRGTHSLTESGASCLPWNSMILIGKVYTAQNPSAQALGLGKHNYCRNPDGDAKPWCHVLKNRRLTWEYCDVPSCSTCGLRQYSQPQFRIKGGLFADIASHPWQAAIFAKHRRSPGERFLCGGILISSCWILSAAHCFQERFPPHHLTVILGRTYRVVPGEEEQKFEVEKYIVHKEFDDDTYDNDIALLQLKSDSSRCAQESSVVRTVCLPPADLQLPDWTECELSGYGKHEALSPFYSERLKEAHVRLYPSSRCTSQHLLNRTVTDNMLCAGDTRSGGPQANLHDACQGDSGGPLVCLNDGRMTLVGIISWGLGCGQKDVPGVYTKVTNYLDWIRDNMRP

B1: abciximab (ReoPro) (Fab, V domains shown)
VH: EVQLQQSGTVLARPGASVKMSCEASGYTFTNYWMHWVKQRPGQGLEWIGAIYPGNSDTSYIQKFKGKAKLTAVTSTTSVYMELSSLTNEDSAVYYCTLYDGYYVFAYWGQGTLVTVSA
VL: EIVLTQSPVTLSVTPGDSVSLSCRASRDISNNLHWFQQTSHESPRLLIKYASQSMSGIPSRFSGSGSGTDFTLSINSVETEDFGMYFCQQTNSWPYTFGGGTKLEIK
Broadly, the Kd is the constant that tells how readily two partners part at equilibrium. In assay [1], B1 returned a dissociation constant Kd of 216 nM.

B2: recombinant human β2-glycoprotein I (insect cells) (other, UniProt P02749 20-345, looked up)
chain: GRTCPKPDDLPFSTVVPLKTFYEPGEEITYSCKPGYVSRGGMRKFICPLTGLWPINTLKCTPRVCPFAGILENGAVRYTTFEYPNTISFSCNTGFYLNGADSAKCTEEGKWSPELPVCAPIICPPPSIPTFATLRVYKPSAGNNSLYRDTAVFECLPQHAMFGNDTITCTTHGNWTKLPECREVKCPFPSRPDNGFVNYPAKPTLYYKDKATFGCHDGYSLDGPEEIECTKLGNWSAMPSCKASCKVPVKKATVVYQGERVKIQEKFKNGMLHGDKVSFFCKNKEKKCSYTEDAQCIDGTIEVPKCFKEHSSLAFWKTDASDVKPC
notes: also called recombinant β2GPI; rβ2GPI
On to B2, for which the Kd in assay [2] turned out to be 2.3 µg/mL; in assay [3] it was 20 nM; in assay [4], 0.9 µg/mL; in assay [5], 51 nM.

B3: human coagulation factor VIII (FVIII) (Aafact) (other)
chain 1: ATRRYYLGAVELSWDYMQSDLGELPVDARFPPRVPKSFPFNTSVVYKKTLFVEFTDHLFNIAKPRPPWMGLLGPTIQAEVYDTVVITLKNMASHPVSLHAVGVSYWKASEGAEYDDQTSQREKEDDKVFPGGSHTYVWQVLKENGPMASDPLCLTYSYLSHVDLVKDLNSGLIGALLVCREGSLAKEKTQTLHKFILLFAVFDEGKSWHSETKNSLMQDRDAASARAWPKMHTVNGYVNRSLPGLIGCHRKSVYWHVIGMGTTPEVHSIFLEGHTFLVRNHRQASLEISPITFLTAQTLLMDLGQFLLFCHISSHQHDGMEAYVKVDSCPEEPQLRMKNNEEAEDYDDDLTDSEMDVVRFDDDNSPSFIQIRSVAKKHPKTWVHYIAAEEEDWDYAPLVLAPDDRSYKSQYLNNGPQRIGRKYKKVRFMAYTDETFKTREAIQHESGILGPLLYGEVGDTLLIIFKNQASRPYNIYPHGITDVRPLYSRRLPKGVKHLKDFPILPGEIFKYKWTVTVEDGPTKSDPRCLTRYYSSFVNMERDLASGLIGPLLICYKESVDQRGNQIMSDKRNVILFSVFDENRSWYLTENIQRFLPNPAGVQLEDPEFQASNIMHSINGYVFDSLQLSVCLHEVAYWYILSIGAQTDFLSVFFSGYTFKHKMVYEDTLTLFPFSGETVFMSMENPGLWILGCHNSDFRNRGMTALLKVSSCDKNTGDYYEDSYEDISAYLLSKNNAIEPRSFSQNSRHPSTRQKQFNATTIPENDIEKTDPWFAHRTPMPKIQNVSSSDLLMLLRQSPTPHGLSLSDLQEAKYETFSDDPSPGAIDSNNSLSEMTHFRPQLHHSGDMVFTPESGLQLRLNEKLGTTAATELKKLDFKVSSTSNNLISTIPSDNLAAGTDNTSSLGPPSMPVHYDSQLDTTLFGKKSSPLTESGGPLSLSEENNDSKLLESGLMNSQESSWGKNVSSTESGRLFKGKRAHGPALLTKDNALFKVSISLLKTNKTSNNSATNRKTHIDGPSLLIENSPSVWQNILESDTEFKKVTPLIHDRMLMDKNATALRLNHMSNKTTSSKNMEMVQQKKEGPIPPDAQNPDMSFFKMLFLPESARWIQRTHGKNSLNSGQGPSPKQLVSLGPEKSVEGQNFLSEKNKVVVGKGEFTKDVGLKEMVFPSSRNLFLTNLDNLHENNTHNQEKKIQEEIEKKETLIQENVVLPQIHTVTGTKNFMKNLFLLSTRQNVEGSYDGAYAPVLQDFRSLNDSTNRTKKHTAHFSKKGEEENLEGLGNQTKQIVEKYACTTRISPNTSQQNFVTQRSKR
chain 2: EITRTTLQSDQEEIDYDDTISVEMKKEDFDIYDEDENQSPRSFQKKTRHYFIAAVERLWDYGMSSSPHVLRNRAQSGSVPQFKKVVFQEFTDGSFTQPLYRGELNEHLGLLGPYIRAEVEDNIMVTFRNQASRPYSFYSSLISYEEDQRQGAEPRKNFVKPNETKTYFWKVQHHMAPTKDEFDCKAWAYFSDVDLEKDVHSGLIGPLLVCHTNTLNPAHGRQVTVQEFALFFTIFDETKSWYFTENMERNCRAPCNIQMEDPTFKENYRFHAINGYIMDTLPGLVMAQDQRIRWYLLSMGSNENIHSIHFSGHVFTVRKKEEYKMALYNLYPGVFETVEMLPSKAGIWRVECLIGEHLHAGMSTLFLVYSNKCQTPLGMASGHIRDFQITASGQYGQWAPKLARLHYSGSINAWSTKEPFSWIKVDLLAPMIIHGIKTQGARQKFSSLYISQFIIMYSLDGKKWQTYRGNSTGTLMVFFGNVDSSGIKHNIFNPPIIARYIRLHPTHYSIRSTLRMELMGCDLNSCSMPLGMESKAISDAQITASSYFTNMFATWSPSKARLHLQGRSNAWRPQVNNPKEWLQVDFQKTMKVTGVTTQGVKSLLTSMYVKEFLISSSQDGHQWTLFFQNGKVKVFQGNQDSFTPVVNSLDPPLLTRYLRIHPQSWVHQIALRMEVLGCEAQDLY
As to B3, the Kd in assay [1] came to 230 nM.
